Patent US11752211B2, “Fatty acids and their use in conjugation to biomolecules” (NOVARTIS AG, priority 2014, dated 2023)
Starred links: 1 amine or outer side, 2 acyl side, 3 side chain; linkers in the order of their positions; H or OH if unused. Positions of bridges follow the written chain, without caps; N, C: chain ends. Non-standard residues stand in square brackets, D forms with d. Residues, ends and D or L forms follow the SMILES beside them. Groups on a side chain read outwards from the residue. *: point of attachment. PEG24 = NCCOCCOCCOCCOCCOCCOCCOCCOCCOCCOCCOCCOCCOCCOCCOCCOCCOCCOCCOCCOCCOCCOCCOCCOCCC(=O)O; Malonyl(C11H23,(CH2)10COOH) = CCCCCCCCCCCC(CCCCCCCCCCC(=O)O)(C(=O)O)C(=O)*; NGly(3-aminopropyl) = O=C(CN(CCCN[*:3])[*:1])[*:2]; pGlu = O=C1CC[C@@H](C(=O)O)N1; NHPhenethyl = c1ccc(CCN*)cc1; dNle = CCCC[C@@H](N)C(=O)O; Nle = CCCC[C@H](N)C(=O)O; Sar = CNCC(=O)O

Experiments:
[1] = Material quality check of GDF15 proteins (clipping, methionine oxidation, deamidation); format: physicochemical
Excerpt: The AHA-(200-308)-hGDF15 (SEQ ID NO: 7) was designed to remove the clipping site observed within the native protein as well as to remove the potential methioinine (M1) formylation site and the N-199 deamidation site.

[2] = In vivo plasma stability of APJ agonist conjugates, 1 mg/kg iv; conditions: rat, male Sprague-Dawley rats, 1 mg/kg intravenously, read-out: In vivo Plasma stability t½ (converted)
Experimental: (§1) Conjugate was dissolved in PBS (Phosphate buffered saline) to a concentration of 1 mg/ml to form Dosing solution. Dosing solution was administered intravenously to male Sprague-Dawley rats via lateral tail vein at a volume of 1 ml/kg body weight, corresponding to a dose of 1 mg/kg. Venous blood samples were acquired from a jugular vein catheter at prescribed times after dosing and immediately placed on wet ice. These samples were centrifuged at 4C, with supernatant plasma transferred to a fresh tube for analysis.
• Standard curve preparation: Stock solution was prepared by dissolving peptide conjugate in water to 1 mg/ml. 10 uL of Stock was mixed with 990 uL rat plasma to form a working stock of 10,000 ng/ml in plasma. This was serially diluted in plasma to form standards of 5000, 1000, 500, 100, 50, 10, 5 and 1 ng/ml. • Sample and standard preparation: 25 uL plasma sample or standard was transferred to a clean plate. 150 uL acetonitrile:MeOH (1:1) containing 100 ng/ml glyburide as internal standard was added to each vial and the plate vortexed to mix the contents. The plate was centrifuged at 4000 rpm at 4 C. 125 uL supernatant was transferred to a clean plate, mixed with 50 uL water and analyzed by LC/MS.

[3] = target: T1, OT (Homo sapiens, UniProt P30559); assay: OT Calcium flux agonist assay (GPCRProfiler); format: cell-based; conditions: read-out: OT Ca^2+ Flux EC50
T1 sequence (P30559 1-389): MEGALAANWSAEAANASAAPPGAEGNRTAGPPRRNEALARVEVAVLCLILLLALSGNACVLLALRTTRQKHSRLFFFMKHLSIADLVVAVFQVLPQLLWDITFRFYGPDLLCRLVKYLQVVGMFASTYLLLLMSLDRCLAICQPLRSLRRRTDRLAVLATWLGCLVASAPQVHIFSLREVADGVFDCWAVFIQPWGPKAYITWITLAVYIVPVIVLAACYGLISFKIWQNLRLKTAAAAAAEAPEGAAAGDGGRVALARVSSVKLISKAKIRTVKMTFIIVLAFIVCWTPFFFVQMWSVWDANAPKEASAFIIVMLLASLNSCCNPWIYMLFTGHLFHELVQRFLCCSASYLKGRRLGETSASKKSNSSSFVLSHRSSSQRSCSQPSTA
Experimental: Supplied compounds were prepared in DMSO and ultimately prepared in the Eurofins Discovery Services GPCRProfiler® Assay Buffer to concentrations that were three-fold higher than the final assay concentration. Similarly, vehicle controls and positive controls were prepared to ensure all assays were properly controlled.
All wells were prepared using the Eurofins Discovery Services GPCRProfiler® Assay Buffer. The GPCRProfiler® Assay Buffer was a modified Hanks Balanced Salt Solution (HBSS) where HBSS was supplemented to contain 20 mM HEPES and 2.5 mM Probenecid at pH7.4.
Compound(s) supplied were plated in duplicate for each concentration assayed.
Reference agonist, oxytocin, was prepared in a similar manner to serve as assay control. The reference agonist, oxytocin, was included at Emax (the concentration where the reference agonist elicited a maximal response).
The agonist assay was conducted on a […] instrument where the test compound(s), vehicle controls, and reference agonist were added to the assay plate after a fluorescence/luminescence baseline was established. […]
All plates were subjected to appropriate baseline corrections. Once baseline corrections were processed, maximum fluorescence/luminescence values were exported and data manipulated to calculate percentage activation and percentage inhibition. […]

[4] = In vivo plasma stability of oxytocin conjugate, 3 mg/kg iv; set-up: species or system rats; conditions: 3 mg/kg intravenously; for half-life: rat, plasma, iv, male Sprague-Dawley rats, read-out: In vivo Plasma stability t½ (converted)
Experimental: as §1, with “concentration of 3 mg/ml to” for “concentration of 1 mg/ml to”, “dose of 3 mg/kg. Venous” for “dose of 1 mg/kg. Venous”
Standard curve preparation: Stock solution was prepared by dissolving peptide conjugate and peptide into two separate vials in dimethylsulfoxide to 1 mg/ml. 10 uL of each stock was mixed with 980 uL rat plasma to form a working stock of 10,000 ng/ml in plasma. This was serially diluted in plasma to form standards of 5000, 1000, 500, 100, 50, 10, 5, 1, 0.5, and 0.1 ng/ml. Sample and standard preparation: 25 uL plasma sample or standard was transferred to a clean plate. 150 uL acetonitrile containing 100 ng/ml glyburide as internal standard was added to each vial and the plate vortexed to mix the contents. The plate was centrifuged at 4000 rpm at 4 C. 125 uL supernatant was transferred to a clean plate, mixed with 150 uL water and analyzed by LC/MS.

[5] = system: Diet-induced obese male mice (C57BL/6NTac); assay: DIO mice single 0.5 mg/kg sc dose: food intake and body weight; conditions: exp 1 / exp 2 = separate in vivo experiments
Experimental: (§2) All animal studies described in this document were approved by the Novartis Institutes for Biomedical Research Animal Care and Use Committee in accordance with local and federal regulations and guidelines. Diet-induced obese male mice (C57BL/6NTac) were purchased from Taconic and fed a 60% fat diet (Research Diets D12492i) from 6-weeks of age onward. Upon arrival, mice were housed one animal per cage under a 12 h:12 h reverse light-dark cycle. Animals all received a minimum of 1 week acclimation prior to any use. Mice were typically studied between 3-4 months of age. […] On the day of study, mice were placed in fresh cages, and the old food removed. Approximately 1 h later and just prior to the dark cycle, mice received a single subcutaneous dose of either vehicle (30 mM sodium acetate, pH 4) or a lipid conjugated GDF15 analog (0.5 mg/kg). After all injections are completed, the mice were reweighed and a defined amount of food returned ([…] per mouse). In surrogate animals treated as described above, plasma was collected at the indicated times, and GDF15 levels were measured by ELISA as per the manufacturer's instructions (R&D Systems Quantikine Human GDF15 Immunoassay; DGD150). The activity and half-life of the conjugates of the invention were tested in the assay described supra.

[6] = DIO mice single 0.5 mg/kg sc dose: plasma GDF15 levels by ELISA (PK); conditions: exp 1 / exp 2 = separate in vivo experiments
Experimental: as §2

[7] = clipping site R9/N10 (for the AHA protein: none detected)

Which results are given for “MHHHHHH-ARN-(200-308)-hGDF15: His-tagged hGDF15 with native sequence, compared with AHA variant in material quality check”?
Methionine oxidation ([1]; M1): M1: 12.0%; N-199 deamidation ([1]; N10): N10: 50.1%; clipping ([1]; clipping site N10/G11): N10/G11 (<1%); clipping [1, 7]: R9/N10 (<1%)

For `CCCC[C@@H](NC(=O)[C@@H]1CCCN1C(=O)CNC(=O)[C@H](CCCCN)NC(=O)[C@@H]1CSSC[C@H](NC(=O)[C@@H]2CCCN2C(=O)[C@H](CCCNC(=N)N)NC(=O)[C@@H]2CCC(=O)N2)C(=O)N[C@@H](CC(C)C)C(=O)N[C@@H](CO)C(=O)N1)C(=O)NCCc1ccccc1` [pE-R—P—C*-L-S—C*—K-G-P-(D-Nle)-NH(Phenethyl) (disulfide C^4-C^7)] ([pGlu]RPCLSCKGP[dNle]-NHPhenethyl; disulfide 4-7), which half-life ([2]; in vivo) is on record?
The half-life was 54 min.

For `CC[C@H](C)[C@@H]1NC(=O)[C@H](Cc2ccc(O)cc2)NC(=O)CNC(=O)CC[C@@H](C(=O)N(C)CC(=O)N[C@@H](CC(C)C)C(=O)NCC(N)=O)NC(=O)[C@H](CC(N)=O)NC(=O)[C@H](CCC(N)=O)NC1=O` (GYIQNE[Sar]LG-NH2; lactam N-6), which EC50 [3] is on record?
Its EC50 is 7.8 nM.

What about the half-life [4] of the same molecule?
The half-life was 36 min.

Which half-life ([2]; in vivo) does the source give for `CCCC[C@@H]1NC(=O)[C@@H]2CCCN2C(=O)CNC(=O)[C@H](CCCCN)NC(=O)[C@H](Cc2cnc[nH]2)NC(=O)[C@@H](NC(=O)[C@H](CC(C)C)NC(=O)[C@H](CCCNC(=N)N)NC(=O)[C@@H]2CCCN2C(=O)[C@H](CCCNC(=N)N)NC(=O)[C@@H]2CCC(=O)N2)CSSC[C@@H](C(=O)N[C@@H](Cc2ccccc2)C(=O)O)NC1=O` [pE-R—P—R-L-C*—H—K-G-P-Nle-C*—F—OH(Disulfide C^6-C^12)] ([pGlu]RPRLCHKGP[Nle]CF-OH; disulfide 6-12) here?
Its half-life is 42 min.

For `C=CCCCCCCCCCC(CCCCCCCCCCC(=O)O)(C(=O)O)C(=O)NCCOCCOCCOCCOCCOCCOCCOCCOCCOCCOCCOCCOCCOCCOCCOCCOCCOCCOCCOCCOCCOCCOCCOCCn1nnc2c1CCC1C(CC2)[C@@H]1COC(=O)NCCCC[C@@H]1NC(=O)[C@H](Cc2c[nH]cn2)NC(=O)[C@@H](NC(=O)[C@H](CC(C)C)NC(=O)[C@H](CCCNC(=N)N)NC(=O)[C@@H]2CCCN2C(=O)[C@H](CCCNC(=N)N)NC(=O)[C@@H]2CCC(=O)N2)CSSC[C@@H](C(=O)N[C@@H](Cc2ccccc2)C(=O)O)NC(=O)[C@H](CCCC)NC(=O)[C@@H]2CCCN2C(=O)CNC1=O` (stereo partly drawn) [Example 21A], which half-life ([2]; plasma) is on record?
Its half-life is 444 min.

For `CCCCCCCCCCCC(CCCCCCCCCCC(=O)O)(C(=O)O)C(=O)NCCOCCOCCOCCOCCOCCOCCOCCOCCOCCOCCOCCOCCOCCOCCOCCOCCOCCOCCOCCOCCOCCOCCOCCOCCC(=O)NCCCN(CC(=O)N[C@@H](CC(C)C)C(=O)NCC(N)=O)C(=O)[C@@H]1CCC(=O)NCC(=O)N[C@@H](Cc2ccc(O)cc2)C(=O)N[C@@H]([C@@H](C)CC)C(=O)N[C@@H](CCC(N)=O)C(=O)N[C@@H](CC(N)=O)C(=O)N1` (stereo partly drawn) [Example 26A] (GYIQNE[NGly(3-aminopropyl)]([PEG24-Malonyl(C11H23,(CH2)10COOH)])LG-NH2; lactam N-6), which EC50 [3] is on record?
Its EC50 is 8.4 nM.

What about the half-life [4] of the same molecule?
Its half-life is 2760 min.

And the “increase in half-life compared to unconjugated oxytocin analog” value ([4]; rats)?
The value was 75 fold.

B1: 12: GDF15 conjugate listed in Table 1 only; no example text in the patent (conjugate, UniProt Q99988 195-308, looked up)
Growth/differentiation factor …: ARARNGDHCPLGPGRCCRLHTVRASLEDLGWADWVLSPREVQVTMCIGACPSQFRAANMHAQIKTSLHRLKPDTVPAPCCVPASYNPMVLIQKTDTGVSLQTYDDLLAKDCHCI
modifications: conjugate
For B1, which “Duration of action: Body weight (BW) reduction” value [5] is on record?
Its value is 6 to 8 days.

And the “Duration of action: Food Intake (FI) reduction” value [5]?
Its value is 6 to 8 days.

B2: hGDF15: non-conjugated hGDF15 (protein, UniProt Q99988 195-308, looked up)
Growth/differentiation factor …: ARARNGDHCPLGPGRCCRLHTVRASLEDLGWADWVLSPREVQVTMCIGACPSQFRAANMHAQIKTSLHRLKPDTVPAPCCVPASYNPMVLIQKTDTGVSLQTYDDLLAKDCHCI
Which results are given for B2?
PK (1/2 life) [6]: 1 h; Duration of action: Body weight (BW) reduction [5]: 1 days; Duration of action: Food Intake (FI) reduction [5]: 1 days

B3: AHA-(200-308)-hGDF15: GDF15 mutant designed to remove clipping site, methionine formylation site and N-199 deamidation site (protein)
chain: AHAGDHCPLGPGRCCRLHTVRASLEDLGWADWVLSPREVQVTMCIGACPSQFRAANMHAQIKTSLHRLKPDTVPAPCCVPASYNPMVLIQKTDTGVSLQTYDDLLAKDCHCI
modifications: GDF15 mutant, Intermediate 57 AHA-(200-308)- hGDF15
Which clipping [1, 7] does the source give for B3 here?
Its clipping is “None”.
